Series [1] addresses C. thermophilum Vps1 GG (minimal GTPase-BSE fusion) (C. thermophilum). As to the kind of experiment: SEC-MALS.
The series “SEC-MALS” concerns the molecule itself. The series can be described thus: SEC-MALS. On the technique in general: In gel filtration, larger molecules generally elute earlier.

Consider “C. thermophilum Vps1 GG (minimal GTPase-BSE fusion) (domain or fragment)”, for which the stoichiometry N in series [1] was determined as 2.

B1: S. cerevisiae Vps1 G436D (natural protein)
chain: MDEHLISTINKLQDALAPLGGGSQSPIDLPQITVVGSQSSGKSSVLENIVGRDFLPRGTGIVTRRPLVLQLINRRPKKSEHAKVNQTANELIDLNINDDDKKKDESGKHQNEGQSEDNKEEWGEFLHLPGKKFYNFDEIRKEIVKETDKVTGANSGISSVPINLRIYSPHVLTLTLVDLPGLTKVPVGDQPPDIERQIKDMLLKYISKPNAIILSVNAANTDLANSDGLKLAREVDPEGTRTIGVLTKVDLMDQGTDVIDILAGRVIPLRYGYIPVINRGQKDIEHKKTIREALENERKFFENHPSYSSKAHYCGTPYLAKKLNSILLHHIRQTLPEIKAKIEATLKKYQNELINLGPETMDSASSVVLSMITDFSNEYAGILDGEAKELSSQELSGGARISYVFHETFKNGVDSLDPFDQIKDSDIRTIMYNSSDSAPSLFVGTEAFEVLVKQQIRRFEEPSLRLVTLVFDELVRMLKQIISQPKYSRYPALREAISNQFIQFLKDATIPTNEFVVDIIKAEQTYINTAHPDLLKGSQAMVMVEEKLHPRQVAVDPKTGKPLPTQPSSSKAPVMEEKSGFFGGFFSTKNKKKLAALESPPPVLKATGQMTERETMETEVIKLLISSYFSIVKRTIADIIPKALMLKLIVKSKTDIQKVLLEKLYGKQDIEELTKENDITIQRRKECKKMVEILRNASQIVSSV
Take B1: the “stoichiometry N” value in “SEC-MALS” amounted to 2.

The stoichiometry N is a count of units in the complex or per binding partner.
